Read-outs that look alike come from different tables or passages of the source.
Experiments:
[1] = biological target: RSV F peptides F85-93 and F249-258 presented to CD8+ T cells of BALB/c mice (RSV, A2 strain)
[2] = biological target: RSV F peptide 51-66 presented to CD4+ T cells of BALB/c mice (RSV, A2 strain)
[3] = biological target: RSV F peptide 51-66 presented to CD4+ T cells of BALB/c mice (RSV, A2 strain); remark: listed apart in the source
[4] = biological target: RSV F peptides F85-93 and F249-258 presented to CD8+ T cells of BALB/c mice (RSV, A2 strain); remark: listed apart in the source

## Splenic T cells of BALB/c mice vaccinated with A317 RNA in liposomes RV01(01), day 49 (Example 7C, 10-1018) (cells without a defined receptor)
[1]
  CD8+ CD4- splenic T cells: % cytokine-positive (IFNg+), intracellular cytokine staining, 10 ug: 3.32%
[2]
  CD4+ CD8- splenic T cells: % cytokine-positive (TNFa+), intracellular cytokine staining, 1 ug: 0.09%

## Splenic T cells of BALB/c mice vaccinated with naked A317 RNA (1 ug), day 49 (Example 7B, 10-1001) (cells without a defined receptor)
[3]
  CD4+ CD8- splenic T cells: % cytokine-positive (TNFa+), intracellular cytokine staining: 0.03%
[4]
  CD8+ CD4- splenic T cells: % cytokine-positive (IFNg+), intracellular cytokine staining: 0.74%

## Splenic T cells of BALB/c mice vaccinated with VRPs expressing RSV-F (1E6 IU), day 49 (Example 7B, 10-1001) (cells without a defined receptor)
[3]
  CD4+ CD8- splenic T cells: % cytokine-positive (TNFa+), intracellular cytokine staining: 0.1%
[4]
  CD8+ CD4- splenic T cells: % cytokine-positive (IFNg+), intracellular cytokine staining: 3.48%

## Splenic T cells of BALB/c mice vaccinated with VRPs expressing RSV-F (1E6 IU), day 49 (Example 7C, 10-1018) (cells without a defined receptor)
[1]
  CD8+ CD4- splenic T cells: % cytokine-positive (IFNg+), intracellular cytokine staining: 2.45%
[2]
  CD4+ CD8- splenic T cells: % cytokine-positive (TNFa+), intracellular cytokine staining: 0.07%

## Splenic T cells of BALB/c mice vaccinated with A317 RNA formulated with CNE17, day 49 (Example 7B, 10-1001) (cells without a defined receptor)
[3]
  CD4+ CD8- splenic T cells: % cytokine-positive (TNFa+), intracellular cytokine staining, 1 ug: 0.05%
[4]
  CD8+ CD4- splenic T cells: % cytokine-positive (IFNg+), intracellular cytokine staining, 1 ug: 1.25%

## Splenic T cells of unvaccinated BALB/c mice, day 49 (Example 7C, 10-1018) (cells without a defined receptor)
[1]
  CD8+ CD4- splenic T cells: % cytokine-positive (IFNg+), intracellular cytokine staining: 0.01%
[2]
  CD4+ CD8- splenic T cells: % cytokine-positive (TNFa+), intracellular cytokine staining: 0.01%

## Splenic T cells of BALB/c mice vaccinated with A317 RNA in liposomes RV01(01), day 49 (Example 7B, 10-1001) (cells without a defined receptor)
[3]
  CD4+ CD8- splenic T cells: % cytokine-positive (TNFa+), intracellular cytokine staining, 1 ug: 0.09%
[4]
  CD8+ CD4- splenic T cells: % cytokine-positive (IFNg+), intracellular cytokine staining, 1 ug: 3.69%

## Splenic T cells of unvaccinated BALB/c mice, day 49 (Example 7B, 10-1001) (cells without a defined receptor)
[3]
  CD4+ CD8- splenic T cells: % cytokine-positive (TNFa+), intracellular cytokine staining: 0%
[4]
  CD8+ CD4- splenic T cells: % cytokine-positive (IFNg+), intracellular cytokine staining: 0.01%

## Splenic T cells of BALB/c mice vaccinated with A317 RNA (10 ug) with electroporation, day 49 (Example 7B, 10-1001) (cells without a defined receptor)
[3]
  CD4+ CD8- splenic T cells: % cytokine-positive (TNFa+), intracellular cytokine staining: 0.05%
[4]
  CD8+ CD4- splenic T cells: % cytokine-positive (IFNg+), intracellular cytokine staining: 0.85%

## Splenic T cells of BALB/c mice vaccinated with naked A317 RNA, day 49 (Example 7C, 10-1018) (cells without a defined receptor)
[1]
  CD8+ CD4- splenic T cells: % cytokine-positive (IFNg+), intracellular cytokine staining, 1 ug: 1.68%
[2]
  CD4+ CD8- splenic T cells: % cytokine-positive (TNFa+), intracellular cytokine staining, 1 ug: 0.03%

Reference: patent US20230348575A1
